Assays:
ASIC1a = target: T1, ASIC1a (Homo sapiens, UniProt P78348); conditions: read-out: IC50, inhibitor of ASIC1a; cited from earlier work
T1 sequence (P78348 1-528): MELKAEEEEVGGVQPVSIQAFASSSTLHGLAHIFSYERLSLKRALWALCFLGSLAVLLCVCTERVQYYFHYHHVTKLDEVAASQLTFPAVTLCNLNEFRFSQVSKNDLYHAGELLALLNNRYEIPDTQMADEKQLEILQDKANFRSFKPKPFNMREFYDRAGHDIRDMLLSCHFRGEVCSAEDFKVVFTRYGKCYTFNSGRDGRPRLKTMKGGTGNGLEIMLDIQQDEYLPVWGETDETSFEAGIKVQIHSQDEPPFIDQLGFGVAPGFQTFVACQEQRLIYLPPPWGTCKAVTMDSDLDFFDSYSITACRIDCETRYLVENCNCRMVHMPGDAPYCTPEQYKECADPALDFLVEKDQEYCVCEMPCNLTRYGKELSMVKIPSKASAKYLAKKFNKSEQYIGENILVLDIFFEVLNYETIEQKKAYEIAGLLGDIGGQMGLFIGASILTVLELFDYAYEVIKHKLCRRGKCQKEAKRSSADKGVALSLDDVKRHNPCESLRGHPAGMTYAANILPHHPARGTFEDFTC

hiPSC-CMs [1] = test: hiPSC-CM calcium analysis (FLIPR Tetra); type: cell-based, human; conditions: any evaluated concentration (1 nM - 1 μM)
Method: hiPSC-CM calcium analysis. Cardiomyocytes were replated (2×10^4 per well) in 384-well plates (CellBIND black with clear bottom, Corning) and cultured for 7 days in RPMI+B27™. On the day of the experiment, the cells were loaded for 1.5 h at 37° C. with FLIPR calcium 4 dye (Molecular Devices) diluted in HBSS pH 7.4. After loading, the plate was transferred to a FLIPR Tetra fluorescent plate reader (Molecular Devices). Calcium transients were measured with excitation wavelengths at 470-495 nm and emission at 515-575 nm. For each plate, the camera gain and intensity were adjusted to optimize signal intensity. Data for each well were expressed as normalized arbitrary fluorescence units. All data were acquired at 0.5 s per read, with baseline measurements for 45 s followed by at least 100 s of data collection after each peptide addition. Peptide solutions (in HBSS pH 7.4) were added to each well to give a final concentration of 1 nM, 10 nM, 100 nM, or 1 μM. Calcium amplitude, maximum calcium, minimum calcium, and spontaneous beating rate were analysed using ScreenWorks software (Molecular Devices) and normalized to baseline measurements.
Replated hiPSC-CMs were loaded with a fluorescent calcium dye and calcium transients were recorded before and after peptide addition.

hiPSC-CMs [2] = test: In vitro ischemia/acidosis with reperfusion in hiPSC-CMs, cell death (LDH); type: cell-based, human; conditions: 10 nM; 18 h hypoxia (0.5% O2) pH 5.0, then 1 h pH 7.4 normoxia
Source text: In vitro ischemia-acidosis injury model with hiPSC-CMs. Differentiated cardiomyocytes were replated on either day 15 or day 17 of differentiation for in vitro ischemia/acidosis assays. At the time of replating, a subset of cells (˜500,000) was set aside for flow cytometry analysis of cardiomyocyte purity (see supplemental methods). For all experiments, only cell preparations with >80% sarcomeric α-actinin-positive cardiomyocytes were used. After re-plating, the cells were maintained for an additional 7 days in RPMI+B27™. To prepare media for ischemia/acidosis injury, 10×HBSS without sodium bicarbonate (Sigma) was diluted to 1× concentration in sterile tissue culture-grade water. Solutions were buffered with either 12 mM HEPES (for pH 7.4 media, Sigma Aldrich) or 12 mM MES (for pH <6.5, Sigma Aldrich) and the pH adjusted accordingly with 1 M NaOH. The medium was sterile filtered with 0.22 μm syringe filters (Millipore). […] For all cell culture experiments, percent cell death was calculated using low and high controls. […]
To assess whether ASIC1a inhibition is cardioprotective in hiPSC-CMs, the inventors evaluated cell death in response to in vitro acidosis, induced by culturing hiPSC-CMs in Hank's […] (HBSS) with pH adjusted to pH 7.4, 6.0, or 5.0. […]

hiPSC-CMs [3] = test: In vitro acidosis injury of hiPSC-CMs, cell death (LDH); type: cell-based, human; conditions: for cell death: 20 nM overnight
Source text: In vitro ischemia-acidosis injury model with hiPSC-CMs. Differentiated cardiomyocytes were replated on either day 15 or day 17 of differentiation for in vitro ischemia/acidosis assays. At the time of replating, a subset of cells (˜500,000) was set aside for flow cytometry analysis of cardiomyocyte purity (see supplemental methods). For all experiments, only cell preparations with >80% sarcomeric α-actinin-positive cardiomyocytes were used. After re-plating, the cells were maintained for an additional 7 days in RPMI+B27™. To prepare media for ischemia/acidosis injury, 10×HBSS without sodium bicarbonate (Sigma) was diluted to 1× concentration in sterile tissue culture-grade water. Solutions were buffered with either 12 mM HEPES (for pH 7.4 media, Sigma Aldrich) or 12 mM MES (for pH <6.5, Sigma Aldrich) and the pH adjusted accordingly with 1 M NaOH. The medium was sterile filtered with 0.22 μm syringe filters (Millipore). […] For reperfusion experiments, the medium was replaced with HBSS pH 7.4 (with or without peptide) after overnight incubation and cultured for 1 h under normoxic conditions. […] For all cell culture experiments, percent cell death was calculated using low and high controls. For low control (LC), cardiomyocytes were cultured overnight in standard culture media (RPMI+B27™). For high control (HC), cells were cultured in RPMI+B27™ containing 1% Triton™ X-100 (Sigma-Aldrich).
To assess whether ASIC1a inhibition is cardioprotective in hiPSC-CMs, the inventors evaluated cell death in response to in vitro acidosis, induced by culturing hiPSC-CMs in Hank's […] (HBSS) with pH adjusted to pH 7.4, 6.0, or 5.0. […] To mimic ischemia/acidosis in vitro, hiPSC-CMs were incubated overnight in combined hypoxic (0.5% O2) and acidic (pH 5.0) conditions with or without peptide.

[4] = tested on: Langendorff-perfused isolated mouse hearts; test: IRI in Langendorff-perfused isolated mouse hearts
Method: IRI in Langendorff-perfused mouse hearts. […] Mice (12-14 weeks) were anesthetized via an intraperitoneal injection of 10 mg/mL ketamine and 1.6 mg/mL xylazil. The heart was excised via thoracotomy and the aorta cannulated. […] Temperature was continuously measured with thermocouple needle microprobes (SDR Scientific) and maintained at 37° C. with circulating water baths. Contractile function was measured via a fluid-filled balloon inserted in the left ventricle and connected to a pressure transducer (ADInstruments Pty Ltd.). Coronary flow was measured with an in-line Doppler flow probe positioned above the aortic cannulae (Transonic Systems Inc.). All functional data were recorded on a four-channel MacLab system (ADInstruments Pty Ltd.). Following 15-30 min of equilibration, hearts were switched to ventricular pacing at 420 beats/min (BPM) using a SD9 stimulator (Grass Instruments, Inc.). Baseline measurements were made for 10-20 min followed by 25 min of global normothermic ischemia and 45 min of reperfusion. Pacing was stopped during ischemia and resumed after 15 min of reperfusion. For peptide-treated experimental groups, 1 μM peptide solution was infused with a syringe pump (World Precision Instruments, LLC.) into the buffer, directly upstream of the cannula, at a rate of 1% of CF, for a final working concentration of 10 nM. Peptide was infused for 10 min prior to the onset of ischemia and during the first 15 min of reperfusion.

Which IC50 (ASIC1a) does the source give for PcTx1 here?
The IC50 was about 1 nM.

What about the calcium amplitudes (hiPSC-CMs [1]) of the same molecule?
Its calcium amplitudes is “Neither Hi1a nor PcTx1 altered”.

And the spontaneous beating rate (hiPSC-CMs [1])?
The spontaneous beating rate was “Neither Hi1a nor PcTx1 altered”.

What about the cell death (hiPSC-CMs [2]) of the same molecule?
The cell death was “blocked”.

What about the “cardioprotection against cell death (LDH)” value (hiPSC-CMs [3]; overnight at pH 5.0, even at concentrations as low as 1 nM) of the same molecule?
The value was “nearly complete cardioprotection”.

What about the EDP ([4]; after 45 min reperfusion, 10 nM peptide) of the same molecule?
Its EDP is 33±8 mmHg.

And the “reactive hyperaemia during early reperfusion (increased CF)” value ([4]; first 5 min of reperfusion)?
Its value is “significant reactive hyperaemia”.

And the baseline contractile function ([4]; first 10 min of peptide infusion prior to ischemia, 10 nM)?
The baseline contractile function was “no effect”.

B1: MitTx (protein)
chain 1: QIRPAFCYEDPPFFQKCGAFVDSYYFNRSRITCVHFFYGQCDVNQNHFTTMSECNRVCHG
chain 2: NLNQFRLMIKCTNDRVWADFVDYGCYCVARDSNTPVDDLDRCCQAQKQCYDEAVKVHGCKPLVMFYSFECRYLASDLDCSGNNTKCRNFVCNCDRTATLCILTATYNRNNHKIDPSRCQ
For B1, which cell death (hiPSC-CMs [3]; pH 6.0) is on record?
Its cell death is “increased cell death”.

What about the cell death (hiPSC-CMs [3]; pH 7.4) of the same molecule?
Its cell death is “increased cell death”.

From patent US12173322B2, “Genome-edited induced pluripotent stem cells, and cells derived therefrom, and uses thereof” (priority 2020, dated 2024)
